This is an account of results in PMC3079584, “A Cytoplasmic Complex Mediates Specific mRNA Recognition and Localization in Yeast”.

For data set [1], the target named is T1, She2p (Saccharomyces cerevisiae, UniProt P36068 1-246). As to the kind of experiment: filter binding; range over three control RNAs; EMSA: 20 mM HEPES pH 7.8, 200 mM NaCl, 2 mM MgCl2, 2 mM DTT, 4% glycerol, 30 or 100 ug/ml yeast tRNA, 5 nM RNA, 20 C; filter binding: 20 mM HEPES pH 7.4-7.5 (7.9 with She3p), 150 mM NaCl, 2 mM MgCl2, 2 mM DTT, 30 ug/ml yeast tRNA, 0.5 nM RNA; pull-down: HNMD buffer, 4 C. The note with it: protein: recombinant; tags: GST tag (PreScission-cleaved); chain copies: 4; label: 32P; hairpin.
T1 sequence (P36068 whole entry): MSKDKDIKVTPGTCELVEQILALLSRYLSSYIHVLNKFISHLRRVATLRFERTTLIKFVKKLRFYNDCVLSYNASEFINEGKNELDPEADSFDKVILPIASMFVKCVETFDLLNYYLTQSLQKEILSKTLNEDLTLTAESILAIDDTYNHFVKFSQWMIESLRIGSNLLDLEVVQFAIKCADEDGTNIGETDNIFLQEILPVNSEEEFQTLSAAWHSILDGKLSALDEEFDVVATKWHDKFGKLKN

Data set [2] concerns the target T2, She2p;She3p (Saccharomyces cerevisiae;Saccharomyces …, UniProt P36068;P38272 1-246;1-425, |). Briefly: EMSA; She3p constant 25 nM, She2p varied; EMSA: 20 mM HEPES pH 7.8, 200 mM NaCl, 2 mM MgCl2, 2 mM DTT, 4% glycerol, 30 or 100 ug/ml yeast tRNA, 5 nM RNA, 20 C; filter binding: 20 mM HEPES pH 7.4-7.5 (7.9 with She3p), 150 mM NaCl, 2 mM MgCl2, 2 mM DTT, 30 ug/ml yeast tRNA, 0.5 nM RNA; pull-down: HNMD buffer, 4 C. The conditions noted are these: protein: recombinant;recombinant; tags: GST tag (PreScission-cleaved);C-terminal His6; chain copies: 4;2; label: 32P; stem-loop. For orientation: A gel shift assay detects complexes by their altered migration in electrophoresis.
Target sequence in this assay (P36068 whole entry, one chain of several): as the sequence (P36068 whole entry) above

For data set [3], the target named is T3, She3p (Saccharomyces cerevisiae, UniProt P38272 1-425).
T3 sequence: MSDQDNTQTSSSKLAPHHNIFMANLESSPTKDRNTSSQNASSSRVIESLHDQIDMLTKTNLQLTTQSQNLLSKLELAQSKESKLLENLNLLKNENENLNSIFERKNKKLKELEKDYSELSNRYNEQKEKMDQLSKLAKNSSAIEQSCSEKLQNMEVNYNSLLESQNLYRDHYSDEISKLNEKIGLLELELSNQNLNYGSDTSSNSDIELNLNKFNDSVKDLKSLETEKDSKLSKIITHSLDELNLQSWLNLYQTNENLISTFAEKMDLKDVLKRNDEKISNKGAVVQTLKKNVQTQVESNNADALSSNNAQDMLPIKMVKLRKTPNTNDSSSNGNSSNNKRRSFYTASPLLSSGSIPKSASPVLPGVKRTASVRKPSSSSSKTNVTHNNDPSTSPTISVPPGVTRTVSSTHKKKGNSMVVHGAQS
Briefly: EMSA; EMSA: 20 mM HEPES pH 7.8, 200 mM NaCl, 2 mM MgCl2, 2 mM DTT, 4% glycerol, 30 or 100 ug/ml yeast tRNA, 5 nM RNA, 20 C; filter binding: 20 mM HEPES pH 7.4-7.5 (7.9 with She3p), 150 mM NaCl, 2 mM MgCl2, 2 mM DTT, 30 ug/ml yeast tRNA, 0.5 nM RNA; pull-down: HNMD buffer, 4 C. The conditions noted are these: protein: recombinant; tags: C-terminal His6; label: 32P; stem-loop.

The target of data set [4] is Puf6p (Saccharomyces cerevisiae, UniProt Q04373 2-656). The description is as above. The conditions noted are these: protein: recombinant, tags: GST tag (cleaved for EMSA; retained in GST pull-downs), label: 32P.
Puf6p, sequence (Q04373 2-656): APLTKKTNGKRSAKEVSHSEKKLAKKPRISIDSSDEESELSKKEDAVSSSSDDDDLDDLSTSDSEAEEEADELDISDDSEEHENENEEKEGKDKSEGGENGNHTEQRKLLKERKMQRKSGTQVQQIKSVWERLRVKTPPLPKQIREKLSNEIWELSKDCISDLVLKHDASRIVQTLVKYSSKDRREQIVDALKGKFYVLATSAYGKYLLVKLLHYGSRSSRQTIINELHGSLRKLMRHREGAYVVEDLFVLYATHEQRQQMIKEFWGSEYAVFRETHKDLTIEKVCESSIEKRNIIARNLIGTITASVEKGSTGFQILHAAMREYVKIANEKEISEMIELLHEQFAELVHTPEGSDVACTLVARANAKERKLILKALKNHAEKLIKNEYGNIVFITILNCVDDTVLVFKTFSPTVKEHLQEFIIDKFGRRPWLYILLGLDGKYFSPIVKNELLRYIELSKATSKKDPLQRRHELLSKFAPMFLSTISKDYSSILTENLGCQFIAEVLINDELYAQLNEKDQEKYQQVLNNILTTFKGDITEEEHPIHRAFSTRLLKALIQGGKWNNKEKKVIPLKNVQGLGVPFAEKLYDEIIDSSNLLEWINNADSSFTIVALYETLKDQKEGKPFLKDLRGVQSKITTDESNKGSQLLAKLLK
Data set [5] addresses T3, She3p. Briefly: EMSA; subtle shift at 25 nM She3p; EMSA: 20 mM HEPES pH 7.8, 200 mM NaCl, 2 mM MgCl2, 2 mM DTT, 4% glycerol, 30 or 100 ug/ml yeast tRNA, 5 nM RNA, 20 C; filter binding: 20 mM HEPES pH 7.4-7.5 (7.9 with She3p), 150 mM NaCl, 2 mM MgCl2, 2 mM DTT, 30 ug/ml yeast tRNA, 0.5 nM RNA; pull-down: HNMD buffer, 4 C. The conditions noted are these: protein: recombinant; tags: C-terminal His6; label: 32P; stem-loop.

The target in data set [6] is She2p (ΔC);She3p (Saccharomyces cerevisiae;Saccharomyces …, UniProt P36068;P38272 1-240;1-425, |). As to the kind of experiment: size-exclusion chromatography; EMSA: 20 mM HEPES pH 7.8, 200 mM NaCl, 2 mM MgCl2, 2 mM DTT, 4% glycerol, 30 or 100 ug/ml yeast tRNA, 5 nM RNA, 20 C; filter binding: 20 mM HEPES pH 7.4-7.5 (7.9 with She3p), 150 mM NaCl, 2 mM MgCl2, 2 mM DTT, 30 ug/ml yeast tRNA, 0.5 nM RNA; pull-down: HNMD buffer, 4 C. The note with it: protein: recombinant;recombinant; tags: GST tag (PreScission-cleaved);C-terminal His6; stem-loop. In general terms: In gel filtration, larger molecules generally elute earlier.
She2p (ΔC);She3p, sequence (P36068 1-240, stated change not applied, one chain of several): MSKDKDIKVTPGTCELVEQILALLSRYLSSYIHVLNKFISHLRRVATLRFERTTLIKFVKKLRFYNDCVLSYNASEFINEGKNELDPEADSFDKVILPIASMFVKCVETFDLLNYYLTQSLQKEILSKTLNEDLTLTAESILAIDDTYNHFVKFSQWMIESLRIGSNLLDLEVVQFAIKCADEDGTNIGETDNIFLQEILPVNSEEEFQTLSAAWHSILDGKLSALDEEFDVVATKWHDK

Data set [7] has as its target Puf6p;She2p (Saccharomyces cerevisiae;Saccharomyces …, UniProt Q04373;P36068 2-656;1-246, |). Briefly: pull-down; GST-Puf6p immobilized; EMSA: 20 mM HEPES pH 7.8, 200 mM NaCl, 2 mM MgCl2, 2 mM DTT, 4% glycerol, 30 or 100 ug/ml yeast tRNA, 5 nM RNA, 20 C; filter binding: 20 mM HEPES pH 7.4-7.5 (7.9 with She3p), 150 mM NaCl, 2 mM MgCl2, 2 mM DTT, 30 ug/ml yeast tRNA, 0.5 nM RNA; pull-down: HNMD buffer, 4 C. The note with it: protein: recombinant;recombinant; tags: GST tag (cleaved for EMSA; retained in GST pull-downs);GST tag (PreScission-cleaved); copies: 1;4; stem-loop.

Data set [8] concerns the target T2, She2p;She3p. Briefly: size-exclusion chromatography; pull-down; EMSA: 20 mM HEPES pH 7.8, 200 mM NaCl, 2 mM MgCl2, 2 mM DTT, 4% glycerol, 30 or 100 ug/ml yeast tRNA, 5 nM RNA, 20 C; filter binding: 20 mM HEPES pH 7.4-7.5 (7.9 with She3p), 150 mM NaCl, 2 mM MgCl2, 2 mM DTT, 30 ug/ml yeast tRNA, 0.5 nM RNA; pull-down: HNMD buffer, 4 C. The note with it: protein: recombinant;recombinant; tags: GST tag (PreScission-cleaved);C-terminal His6; chain copies: 4;2; stem-loop.
Target sequence in this assay (P36068 whole entry, one chain of several): as the sequence (P36068 whole entry) above

The target of data set [9] is Puf6p;She2p;She3p (Saccharomyces cerevisiae;Saccharomyces …, UniProt Q04373;P36068;P38272 2-656;1-246;1-425, ||). As to the kind of experiment: pull-down; His-She3p or GST-Puf6p immobilized; EMSA: 20 mM HEPES pH 7.8, 200 mM NaCl, 2 mM MgCl2, 2 mM DTT, 4% glycerol, 30 or 100 ug/ml yeast tRNA, 5 nM RNA, 20 C; filter binding: 20 mM HEPES pH 7.4-7.5 (7.9 with She3p), 150 mM NaCl, 2 mM MgCl2, 2 mM DTT, 30 ug/ml yeast tRNA, 0.5 nM RNA; pull-down: HNMD buffer, 4 C. The note with it: protein: recombinant;recombinant;recombinant; tags: GST tag (cleaved for EMSA; retained in GST pull-downs);GST tag (PreScission-cleaved);C-terminal His6; stem-loop.
Puf6p;She2p;She3p, sequence (Q04373 2-656, chain 1 of 2): as the sequence (Q04373 2-656) above
Puf6p;She2p;She3p, sequence (P36068 whole entry, chain 2 of 2): as the sequence (P36068 whole entry) above

Data set [10] concerns the target She2p (ΔhE) (Saccharomyces cerevisiae, UniProt P36068 1-246, del174-183). Briefly: size-exclusion chromatography; binary co-complex; EMSA: 20 mM HEPES pH 7.8, 200 mM NaCl, 2 mM MgCl2, 2 mM DTT, 4% glycerol, 30 or 100 ug/ml yeast tRNA, 5 nM RNA, 20 C; filter binding: 20 mM HEPES pH 7.4-7.5 (7.9 with She3p), 150 mM NaCl, 2 mM MgCl2, 2 mM DTT, 30 ug/ml yeast tRNA, 0.5 nM RNA; pull-down: HNMD buffer, 4 C. The note with it: protein: recombinant; tags: GST tag (PreScission-cleaved); chain copies: 2; stem-loop.

The target of data set [11] is T3, She3p. Briefly: UV cross-linking; EMSA: 20 mM HEPES pH 7.8, 200 mM NaCl, 2 mM MgCl2, 2 mM DTT, 4% glycerol, 30 or 100 ug/ml yeast tRNA, 5 nM RNA, 20 C; filter binding: 20 mM HEPES pH 7.4-7.5 (7.9 with She3p), 150 mM NaCl, 2 mM MgCl2, 2 mM DTT, 30 ug/ml yeast tRNA, 0.5 nM RNA; pull-down: HNMD buffer, 4 C. The conditions noted are these: protein: recombinant; tags: C-terminal His6; label: 32P; stem-loop.

Data set [12] deals with T1, She2p. Described as above. The conditions noted are these: protein: recombinant; tags: GST tag (PreScission-cleaved); chain copies: 4; label: 32P; stem-loop.
Data set [13] addresses T2, She2p;She3p. Briefly: EMSA; She3p constant 25 nM; Kd stated as in similar range; EMSA: 20 mM HEPES pH 7.8, 200 mM NaCl, 2 mM MgCl2, 2 mM DTT, 4% glycerol, 30 or 100 ug/ml yeast tRNA, 5 nM RNA, 20 C; filter binding: 20 mM HEPES pH 7.4-7.5 (7.9 with She3p), 150 mM NaCl, 2 mM MgCl2, 2 mM DTT, 30 ug/ml yeast tRNA, 0.5 nM RNA; pull-down: HNMD buffer, 4 C. The note with it: protein: recombinant;recombinant; tags: GST tag (PreScission-cleaved);C-terminal His6; chain copies: 4;2; label: 32P; stem-loop.
Target sequence in this assay (P36068 whole entry, chain 1 of 2, one chain of several): as the sequence (P36068 whole entry) above

Puf6p;She2p, sequence (Q04373 2-656, chain 1 of 2): as the sequence (Q04373 2-656) above
Puf6p;She2p, sequence (P36068 whole entry, chain 2 of 2): as the sequence (P36068 whole entry) above
She2p (ΔhE), sequence (P36068 other isoform, or with tags, fused parts or gaps del174-183 | mutant): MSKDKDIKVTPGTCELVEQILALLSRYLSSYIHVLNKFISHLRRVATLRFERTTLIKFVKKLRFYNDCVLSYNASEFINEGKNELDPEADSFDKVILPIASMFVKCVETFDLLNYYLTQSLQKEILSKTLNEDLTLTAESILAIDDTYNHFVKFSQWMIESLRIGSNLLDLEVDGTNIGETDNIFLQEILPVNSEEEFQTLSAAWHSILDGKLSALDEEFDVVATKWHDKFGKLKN

Regarding CGAGCCUGGGAGCUCG (structured_RNA) [HIV-1 TAR (16 bases)], the dissociation constant (Kd) (in general, the equilibrium constant for the complex coming apart) in [1] was around 1330 nM.

B1: ASH1 E2B (domain 1) (structured_RNA)
RNA: AUCUUCAUCUCCAUCUCCCUCCACACCGACGAAAAGUGGCAAGAUGAGAUCAAGAUCA
In the case of B1, in [2], the Kd is around 25 nM.

As to CGAAGAUGAAAAUGAUCACGAGAGAGAUCCCGAACAAUUUUCAGAAUUUG (structured_RNA) [EAR1 zip code], the binding result in [3] and in [4] (stem-loop) was “binds” in each case. Besides, in data set [2], the Kd is around 25 nM.

B2: HIV-1 TAR (57 bases) (structured_RNA)
RNA: GGUCUCUCUGGUUAGACCAGAUCUGAGCCUGGGAGCUCUCUGGCUAACUAGGGAACC
Take B2: the Kd in [1] is around 1330 nM.

B3: ASH1 E1 (structured_RNA)
RNA: AAGACUAUGUUAAAAUACGCGAAGAAGUGGCUCAUUUCAAGCCAUUAAGUAUACCCAACUUAACUAAUAAUCAAAAUAA
For the molecule B3, the binding result in [5] is “binds”. Besides, the Kd in data set [2] was around 25 nM.

B4: ASH1 E2A (structured_RNA)
RNA: UUGCGAAUAGAGACAUUCUAUCGAACAAUUCCAAAUCUAAUGUAAGGAAACCAUCUAAGAACAAAAUCUCAAAGCAA
B4: the binding result in data set [5] is reported as “binds”. Also, in data set [2], the Kd was around 25 nM.

In the case of UUAUCCAUUGCACUCCGGAUGU (structured_RNA) [U1 snRNA hairpin II], the Kd in [1] is around 1330 nM.

B5: E3-118-tRNA (structured_RNA)
RNA: GGCUACGUAGCUCAGUUGGUUAGAGCAGCGGCCGGAGACAGUAGAGAAUUGAUACAUGGAUAACUGAAUCUCUUUCAACUAAUAAGAGACAUUAUCACGAAACAAUUGUACAUUUCUCUCCUUGUCUGUGCUAAAUAAACUACAAAUAAAAACCGCGGGUCACAGGUUCGAAUCCCGUCGUAGCCACCA
In the case of B5, the binding result in data set [6], in [7], in data set [8], in data set [9] and in data set [10] was “binds” throughout.

B6: Poly(A)60 (ssRNA)
RNA: AAAAAAAAAAAAAAAAAAAAAAAAAAAAAAAAAAAAAAAAAAAAAAAAAAAAAAAAAAAA
Take B6: the binding result in [4] is “binds”.

B7: ASH1 E3-51 (structured_RNA)
RNA: AUGGAUAACUGAAUCUCUUUCAACUAAUAAGAGACAUUAUCACGAAACAAU
Turning to B7, the binding result in data set [11] and in data set [12] was “binds” each time. Moreover, the Kd in [13] is around 25 nM.
